# Reference: IntAct's records for PubMed 35512704
# B1: Mothers against decapentaplegic homolog 4 (Homo sapiens), Q13485 (parent)
# chain: MDNMSITNTPTSNDACLSIVHSLMCHRQGGESETFAKRAIESLVKKLKEKKDELDSLITAITTNGAHPSKCVTIQRTLDGRLQVAGRKGFPHVIYARLWRWPDLHKNELKHVKYCQYAFDLKCDSVCVNPYHYERVVSPGIDLSGLTLQSNAPSSMMVKDEYVHDFEGQPSLSTEGHSIQTIQHPPSNRASTETYSTPALLAPSESNATSTANFPNIPVASTSQPASILGGSHSEGLLQIASGPQPGQQQNGFTGQPATYHHNSTTTWTGSRTAPYTPNLPHHQNGHLQHHPPMPPHPGHYWPVHNELAFQPPISNHPAPEYWCSIAYFEMDVQVGETFKVPSSCPIVTVDGYVDPSGGDRFCLGQLSNVHRTEAIERARLHIGKGVQLECKGEGDVWVRCLSDHAVFVQSYYLDREAGRAPGDAVHKIYPSAYIKVFDLRQCHRQMQQQAATAQAAAAAQAAAVAGNIPGPGSVGGIAPAISLSAAAGIGVDDLRRLCILRMSFVKGWGPDYPRQSIKETPCWIEIHLHRALQLLDEVLHTMPIADPQPLD
# partner: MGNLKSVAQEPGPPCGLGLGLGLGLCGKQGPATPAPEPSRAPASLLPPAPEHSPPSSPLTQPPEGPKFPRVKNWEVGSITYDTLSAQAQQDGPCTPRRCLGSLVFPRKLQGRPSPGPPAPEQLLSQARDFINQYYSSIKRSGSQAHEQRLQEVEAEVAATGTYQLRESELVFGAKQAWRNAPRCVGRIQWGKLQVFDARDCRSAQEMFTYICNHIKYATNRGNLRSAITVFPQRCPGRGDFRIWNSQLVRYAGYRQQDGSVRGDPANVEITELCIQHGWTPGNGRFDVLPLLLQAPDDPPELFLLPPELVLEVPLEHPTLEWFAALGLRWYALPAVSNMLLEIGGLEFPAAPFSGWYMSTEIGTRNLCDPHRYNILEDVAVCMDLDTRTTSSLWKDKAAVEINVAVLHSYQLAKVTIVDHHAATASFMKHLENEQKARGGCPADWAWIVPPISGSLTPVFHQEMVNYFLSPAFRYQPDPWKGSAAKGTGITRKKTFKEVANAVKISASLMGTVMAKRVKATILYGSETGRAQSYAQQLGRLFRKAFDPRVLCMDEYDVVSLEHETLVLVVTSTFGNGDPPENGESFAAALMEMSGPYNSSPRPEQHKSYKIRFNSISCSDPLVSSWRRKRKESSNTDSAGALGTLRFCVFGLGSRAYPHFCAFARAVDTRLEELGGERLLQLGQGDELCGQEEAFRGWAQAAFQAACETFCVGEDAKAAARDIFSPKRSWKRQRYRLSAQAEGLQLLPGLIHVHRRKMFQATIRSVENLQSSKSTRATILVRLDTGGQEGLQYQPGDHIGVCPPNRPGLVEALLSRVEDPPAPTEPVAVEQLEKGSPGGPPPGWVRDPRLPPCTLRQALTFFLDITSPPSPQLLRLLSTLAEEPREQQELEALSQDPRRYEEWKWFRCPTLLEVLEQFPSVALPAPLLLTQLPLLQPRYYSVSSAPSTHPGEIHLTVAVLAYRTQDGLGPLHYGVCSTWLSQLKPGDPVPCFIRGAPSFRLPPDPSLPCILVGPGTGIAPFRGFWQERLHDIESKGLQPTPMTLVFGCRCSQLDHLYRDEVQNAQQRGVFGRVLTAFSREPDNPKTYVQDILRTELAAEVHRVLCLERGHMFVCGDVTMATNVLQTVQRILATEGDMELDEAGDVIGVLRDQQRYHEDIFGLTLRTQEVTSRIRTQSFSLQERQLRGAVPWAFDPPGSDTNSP
# B2: Mothers against decapentaplegic homolog 4 (Homo sapiens), Q13485 (parent)
# chain: B1 chain
# partner: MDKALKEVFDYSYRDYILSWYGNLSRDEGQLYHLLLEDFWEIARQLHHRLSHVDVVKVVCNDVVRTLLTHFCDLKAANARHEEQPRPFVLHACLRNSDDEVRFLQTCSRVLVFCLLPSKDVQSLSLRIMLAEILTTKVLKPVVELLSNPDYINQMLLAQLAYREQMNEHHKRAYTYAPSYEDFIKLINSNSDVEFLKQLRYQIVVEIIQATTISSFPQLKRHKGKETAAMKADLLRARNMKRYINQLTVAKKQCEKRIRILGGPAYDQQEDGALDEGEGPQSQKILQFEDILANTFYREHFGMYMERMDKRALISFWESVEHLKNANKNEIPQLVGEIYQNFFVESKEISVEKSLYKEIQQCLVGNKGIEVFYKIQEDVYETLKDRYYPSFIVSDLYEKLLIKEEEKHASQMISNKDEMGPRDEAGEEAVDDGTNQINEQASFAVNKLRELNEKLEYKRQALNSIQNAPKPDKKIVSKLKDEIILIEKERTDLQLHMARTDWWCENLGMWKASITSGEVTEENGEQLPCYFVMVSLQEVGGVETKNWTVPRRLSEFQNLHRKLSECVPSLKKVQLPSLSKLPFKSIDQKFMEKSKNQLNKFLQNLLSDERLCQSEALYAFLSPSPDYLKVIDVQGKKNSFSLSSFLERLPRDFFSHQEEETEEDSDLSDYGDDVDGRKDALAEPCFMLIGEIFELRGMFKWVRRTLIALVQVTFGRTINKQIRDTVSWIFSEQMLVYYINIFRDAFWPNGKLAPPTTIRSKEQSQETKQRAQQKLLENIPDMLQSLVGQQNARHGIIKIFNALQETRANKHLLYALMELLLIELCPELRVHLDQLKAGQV
# B3: Mothers against decapentaplegic homolog 4 (Homo sapiens), Q13485 (parent)
# chain: B1 chain
# partner: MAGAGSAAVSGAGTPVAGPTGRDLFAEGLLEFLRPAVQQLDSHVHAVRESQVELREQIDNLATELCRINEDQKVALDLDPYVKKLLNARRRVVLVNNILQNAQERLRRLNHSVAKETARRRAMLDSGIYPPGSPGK
# B4: Mothers against decapentaplegic homolog 4 (Homo sapiens), Q13485 (parent)
# chain: B1 chain
# partner: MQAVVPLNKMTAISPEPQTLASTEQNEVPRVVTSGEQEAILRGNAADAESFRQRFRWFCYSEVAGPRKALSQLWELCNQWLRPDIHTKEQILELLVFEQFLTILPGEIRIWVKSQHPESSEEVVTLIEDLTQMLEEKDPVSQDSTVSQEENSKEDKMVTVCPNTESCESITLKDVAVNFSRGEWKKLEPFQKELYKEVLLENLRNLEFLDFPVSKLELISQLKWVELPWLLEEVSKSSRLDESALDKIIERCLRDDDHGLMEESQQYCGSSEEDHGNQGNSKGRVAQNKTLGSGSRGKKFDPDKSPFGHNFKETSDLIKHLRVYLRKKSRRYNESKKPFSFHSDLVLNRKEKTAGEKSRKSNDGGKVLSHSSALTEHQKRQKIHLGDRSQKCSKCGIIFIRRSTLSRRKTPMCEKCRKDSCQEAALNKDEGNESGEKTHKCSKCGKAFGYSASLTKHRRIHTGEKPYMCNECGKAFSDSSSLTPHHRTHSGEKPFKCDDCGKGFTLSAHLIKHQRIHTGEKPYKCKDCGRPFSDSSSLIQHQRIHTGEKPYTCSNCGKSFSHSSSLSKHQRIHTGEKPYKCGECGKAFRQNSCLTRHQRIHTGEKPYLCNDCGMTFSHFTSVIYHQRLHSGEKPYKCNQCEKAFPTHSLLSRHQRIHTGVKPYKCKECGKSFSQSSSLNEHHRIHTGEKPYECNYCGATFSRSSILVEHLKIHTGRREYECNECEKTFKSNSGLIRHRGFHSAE
# B5: Mothers against decapentaplegic homolog 4 (Homo sapiens), Q13485 (parent)
# chain: B1 chain
# partner: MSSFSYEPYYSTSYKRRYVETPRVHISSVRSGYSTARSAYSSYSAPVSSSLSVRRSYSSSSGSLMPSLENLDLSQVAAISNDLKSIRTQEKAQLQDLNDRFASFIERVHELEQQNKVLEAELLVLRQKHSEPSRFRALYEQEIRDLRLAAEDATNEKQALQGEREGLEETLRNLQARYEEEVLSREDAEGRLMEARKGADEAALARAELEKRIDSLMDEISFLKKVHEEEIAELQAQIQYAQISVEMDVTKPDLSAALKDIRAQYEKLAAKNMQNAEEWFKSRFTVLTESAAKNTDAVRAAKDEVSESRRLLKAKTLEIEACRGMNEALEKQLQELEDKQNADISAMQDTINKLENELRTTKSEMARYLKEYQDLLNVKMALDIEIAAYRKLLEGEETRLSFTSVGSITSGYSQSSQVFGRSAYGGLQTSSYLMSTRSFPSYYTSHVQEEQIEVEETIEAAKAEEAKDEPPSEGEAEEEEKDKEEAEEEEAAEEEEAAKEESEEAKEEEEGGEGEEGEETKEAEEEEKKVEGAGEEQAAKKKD
# Variants of: B1
# Conditions: with nos3_human NOS3, P29474
row,Variant,effect of a mutation on the interaction
1,R361H,with no effect

# Variants of: B1
# Conditions: with nos3_human NOS3, P29474
# Remark: another data set of the same source
row,Variant,effect of a mutation on the interaction
1,G386D,with no effect

# Variants of: B1
# Conditions: with nos3_human NOS3, P29474
# Remark: another data set of the same source
row,Variant,effect of a mutation on the interaction
1,G386D,increasing interaction strength

# Variants of: B2
# Conditions: with snx25_human SNX25, Q9H3E2
row,Variant,effect of a mutation on the interaction
1,G386D,with no effect

# Variants of: B2
# Conditions: with snx25_human SNX25, Q9H3E2
# Remark: another data set of the same source
row,Variant,effect of a mutation on the interaction
1,R361H,with no effect

# Variants of: B3
# Conditions: with snapn_human SNAPIN
row,Variant,effect of a mutation on the interaction
1,R361H,with no effect

# Variants of: B4
# Conditions: with zn483_human ZNF483, Q8TF39
row,Variant,effect of a mutation on the interaction
1,R361C,with no effect

# Variants of: B4
# Conditions: with zn483_human ZNF483, Q8TF39
# Remark: another data set of the same source
row,Variant,effect of a mutation on the interaction
1,R361H,with no effect

# Variants of: B5
# Conditions: with nfl_human NEFL
row,Variant,effect of a mutation on the interaction
1,G386D,with no effect
